Where a SMILES comes first, the peptide text is derived from it.
Experiments:
A549 tumor = experiment: In vivo fluorescence optical imaging and ex vivo organ distribution in A549 tumor-bearing nude mice; details: for uptake / retention in A549 tumor: 0.3 μmol per kg via lateral tail vein, fluorescence imaging
Protocol: All in vivo studies were performed in compliance with the Washington University in St Louis Animal Study Committee's requirements for the care and use of laboratory animals in research. Nude mice (18-22 g) were anesthetized with xylazine/ketamine cocktail via intraperitoneal injection and placed in a supine position. The mice were injected subcutaneously with A549 cells (1×10^6) in the lower back of the mice. Tumor masses were palpable at 5-7 days post implant, which reached 5 mm in 10-15 days. Prior to injection of the probe, the mice were anesthetized as described above. A 29-gauge needle was used to inject the probes into the mouse via the lateral tail vein. The molecular probe (100 μL) was injected via the lateral tail vein at 0.3 μmol per kg of body weight. […] [SEQ ID NO:1] were constituted in a vial, and doses of 0.3 μmol per kg of body weight were injected into the A549 tumor-bearing mice.
A non-invasive in vivo continuous wave fluorescence imaging apparatus was used to visualize the distribution and preferential tissue uptake of the cypate-peptide molecular beacons in the nude mice (Achilefu (2004) Technol. Cancer Res. Treat. 3:393-409, incorporated herein by reference). Light from two laser diodes of nominal wavelength 780 nm and nominal power of 50 mW was launched into a fiber optic bundle. Two laser diodes were used to produce as much uniform illumination of the whole animal or organ parts as possible. The nominal 50 mW of incident power was reduced to about 44 mW at the output of the fiber optic bundle. A de-focusing lens in position after the bundle expanded the beam such that nearly the whole animal was illuminated. A Photometrics CCD camera (16 bit, 1024×1024 pixel, back illuminated, thermoelectric Peltier cooled with forced air) was used to capture the emitted photons. An interference filter (830 nm) was mounted in front of the CCD camera input lens such that only emitted fluorescent light from the contrast agent was imaged. Real-time acquisition, display and data processing software (WinView/32) was used to obtain the optical image. The samples were dissolved in 20% aqueous DMSO and animals were injected with doses of 0.3 μmol/kg body weight via the lateral tail vein. Injected volumes were 100 μL for each mouse. Data analysis consisted of subtracting (pixel by pixel) the pre-injection image from the post injection images, and displaying the false color results. Integration of the relative fluorescence intensities of tumor vs. surrounding tissues indicated the extent of selective uptake of the contrast agent. At the completion of the study, the mice were euthanized and some organ parts were excised and rinsed with water. The tissues were placed under the CCD camera and the fluorescence emission from each organ was measured after excitation with the 780 nm laser sources. Tissue parts, instead of whole organs, were used to minimize problems associated with depth-dependent non-linear fluorescence emission. A statistical program in the WinView package was used to estimate the mean fluorescence intensity per organ part.
In vivo optical imaging studies using the cypate-peptide optical probes were performed and analyzed as described above in Example 1. […]

HEK cells = experiment: Cell uptake and internalization (Example 3); type: cell-based, human; details: within an hour of incubation
Protocol: (§1) The ABI-positive cells were incubated with cypate or cypate-peptide conjugates at 37° C. for different time points. A549 cells were grown as detailed above. The human glioblastoma cell line, U87, and the human embryonic kidney cell line, HEK, were purchased from ATTC. U87 and HEK cells were maintained in minimum essential medium (MEM) with 2 mM L-glutamine and Earle's BSS adjusted to contain 1.5 g/L sodium bicarbonate, 0.1 mM nonessential amino acids, and 1.0 mM sodium pyruvate, with 10% fetal calf serum, 100 units/mL penicillin, and 100 units/mL streptomycin. Cells were grown on Lab-Tek slides. The medium was replaced and cells were incubated for various times up to 4 h at 37° C. in the presence of 1 μM of the dye conjugated peptides. For fluorescence microscopy, cells were visualized with an Olympus BX61W1 microscope using 775/50 excitation, 845/55 emission. For subcellular localization studies, 25 nM mitotracker green or 50 nM lysotracker red from Molecular Probes (Eugene, Oreg.) was added during the last 15 min or 60 min of incubation, respectively. […] Relative fluorescence was determined for five different areas of each experimental condition using the Slidebook software, and the results were averaged. The average relative fluorescence for each condition was normalized to cells treated with Cyp-GRD peptide.

U87 cells = experiment: Cell uptake and internalization (Example 3); type: cell-based, human; details: within an hour of incubation
Protocol: as §1

VSMC wild-type cells = experiment: Internalization in wild-type vascular smooth muscle cells; type: cell-based, mice; details: 1 μM, 1 hr, 37° C.
Protocol: Having shown that cypate-GRD preferentially binds to β3 integrin in ABI-positive cells, it was hypothesized that it would not internalize in β3 knockout cells. Vascular smooth muscle cells (VSMCs) from the aortas of β3^−/−apoE^−/− and β3^+/+apoE^−/− mice were provided by Dr. Clay F. Semenkovich (Washington University Medical School in St. Louis, Mo.). VSMCs were maintained at 37° C. in humidified atmosphere containing 5% CO2 in Dulbecco's modified Eagle's medium (DMEM) containing 10% fetal bovine serum, 4 mmol/L L-glutamine, 1 mM sodium pyruvate, 100 U/ml penicillin, 0.25 μg/ml amphotericin, 100 μg/ml streptomycin. The internalization of cypate-GRD and cyclic cypate-RGD were compared in β3 knockout and wild-type VSMC cells, essentially as described above.

A549 cells [1] = experiment: CyQuant cytotoxicity and proliferation assay; type: cell-based, human; details: 48 hours
Protocol: Cells were seeded at 2.5×10^4 cells/well and grown in 96 well plates in the presence of 0−1.5×10^−5 M cypate conjugated peptides for 24 or 48 hours. Cell proliferation was measured using the CyQuant proliferation assay from Molecular Probes (Eugene, Oreg.) per the manufacturer's protocol. Briefly, after incubation the microplate was inverted to remove the media and frozen at −70° C. overnight. The microplate was thawed at room temperature and 200 μL of the CyQuant GR dye/cell-lysis buffer was added to each well. […]
Because the Cyquant assay is based on the adherence of a dye to nucleic acids, the assay is a measure of both proliferative and cytotoxic effects.

A549 cells [2] = experiment: Cellular internalization and blocking studies by fluorescence microscopy (Example 1); details: 37° C.; for translocation into the nucleus: A549 cells
Protocol: Cells were grown on LabTek microscope slides, as described above. The medium was removed and cells were incubated at 4° C. or 37° C. in PBS containing 1 μM of one of the peptide conjugates for 30 min. […] The cells were further incubated at 37° C. for 4 h and visualized with a Zeiss LSM510 system using a 633 laser and an LP650 filter.
For antibody blocking studies, cells were preincubated for 30 min at room temperature with 10 μg/ml function-specific monoclonal antibodies anti-αv or anti-β3 integrin subunits (Molecular Probes; Eugene Oreg.) before addition of 1 μM of a cypate-peptide conjugate. For nuclear staining, 0.1 μM TOPO-1 (Molecular Probes) was mixed with mounting medium and applied to the cells. All cells were visualized on an Olympus FV1000 microscope equipped with the appropriate bandwidth filters for cypate conjugates (or cypate-3 conjugates) and TROPO-1.

For `CC1(C)C(/C=C/C=C/C=C/C=C2/N(CCC(=O)NCC(=O)N[C@@H](CCCNC(=N)N)C(=O)N[C@@H](CC(=O)O)C(=O)N[C@@H](CO)C(=O)N3CCC[C@H]3C(=O)N[C@@H](CCCCN)C(=O)O)c3ccc4ccccc4c3C2(C)C)=[N+](CCC(=O)O)c2ccc3ccccc3c21` [Cyp-GRD, Cypate-GRDSPK] (HELM PEPTIDE1{[CC1(C)C(/C=C/C=C/C=C/C=C2/N(CCC(=O)[*:2])c3ccc4ccccc4c3C2(C)C)=[N+](CCC(=O)O)c2ccc3ccccc3c21].G.R.D.S.P.K}$$$$V2.0), the clearance from blood (A549 tumor; 0.3 μmol per kg i.v.) was “slow clearance”, the “time post injection after which selective tumor uptake became obvious” value (A549 tumor; 0.3 μmol per kg i.v.) was > 8 h and the “time the whole animal fluoresced after injection before clearance began” value (A549 tumor; 0.3 μmol per kg i.v.) was “up to 2 h”. For the same compound, the “uptake / retention in A549 tumor” value (A549 tumor) was “preferential uptake of the probes in the tumor”, the “uptake / retention in A549 tumor” value (A549 tumor; listed as cypate-GRD) was “preferentially localized” and the “accumulation / retention in nontarget tissues” value (A549 tumor; 24 h post injection) was “much lower”. The “tumor uptake compared among the cypate-peptide conjugates” value (A549 tumor; 24 h post injection) was “higher uptake in the tumor tissue”, the “internalization in HEK cells” value (HEK cells) was “internalization” and the “internalization in U87 cells” value (U87 cells) was “internalization”. The “internalization in VSMC wild-type cells” value (VSMC wild-type cells) was “internalized”, the “cytotoxicity (CyQuant), longer treatment” value (A549 cells [1]) was “not” and the “internalization in A549 cells” value (A549 cells [2]; 1 μM) was “internalized”. The “translocation into the nucleus” value (A549 cells [2]) was “did not translocate to the nucleus” and the “translocation into the nucleus” value (A549 cells [2]; listed as cypate-GRD) was “not localized in the nucleus”.
